# Experimental data published in patent US5739002A, “Method for reproducing in vitro the Proteolytic activity of the NS3 protease of hepatitis C virus (HCV)” (Istituto di Richerche di Biologia Molecolare P. Angeletti …, priority 1994, dated 1998).
# Assays:
# HCV NS3 serine protease [1] = biological target: T1, HCV NS3 serine protease (Hepatitis C virus (isolate BK), UniProt P26663); assay: Activation of HCV NS3 serine protease in an in vitro translation assay (rabbit reticulocyte extracts, NS5AB precursor substrate); assay type: biochemical
# T1 construct: substrate NS5AB precursor
# T1 sequence (P26663 1007-1615): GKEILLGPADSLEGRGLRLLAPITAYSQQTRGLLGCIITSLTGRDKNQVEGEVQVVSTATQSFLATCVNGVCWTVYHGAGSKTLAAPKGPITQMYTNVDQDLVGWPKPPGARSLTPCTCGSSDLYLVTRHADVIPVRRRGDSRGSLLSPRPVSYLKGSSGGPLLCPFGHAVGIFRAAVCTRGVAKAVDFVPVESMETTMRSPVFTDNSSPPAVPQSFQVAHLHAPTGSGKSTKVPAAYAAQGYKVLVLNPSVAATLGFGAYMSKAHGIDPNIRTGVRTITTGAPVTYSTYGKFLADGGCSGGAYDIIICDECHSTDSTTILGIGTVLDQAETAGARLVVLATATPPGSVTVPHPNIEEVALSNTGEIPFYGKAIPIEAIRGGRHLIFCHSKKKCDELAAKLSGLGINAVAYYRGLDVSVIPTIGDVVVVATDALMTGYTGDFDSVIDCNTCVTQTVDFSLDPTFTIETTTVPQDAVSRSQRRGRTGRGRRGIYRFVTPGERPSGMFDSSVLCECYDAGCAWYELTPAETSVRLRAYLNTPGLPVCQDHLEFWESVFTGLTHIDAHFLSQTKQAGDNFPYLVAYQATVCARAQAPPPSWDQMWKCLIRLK
# Source text: The plasmids described in FIG. 1 can also be used for in vitro synthesis of mRNA coding for the respective HCV proteins using the purified RNA polymerase enzyme of the phage T7 (Promega).
# Generally the plasmids derived from pCite-1^R were linearized using suitable restriction enzymes and transcribed using the protocols supplied by the manufacturer (Promega). These synthetic mRNA, could later be used to synthesize the corresponding proteins in extracts of rabbit reticulocytes in the presence of canine pancreas microsomal membranes. The reticulocyte extracts, the canine pancreas microsomal membranes, like all the other material required, were purchased from Promega, which also supplied the instructions for the in vitro protein syntheses process described above.
# Programming the in vitro translation mixture with mRNA transcribed from pCite(NS3) it is possible to observe synthesis of a protein with the expected molecular weight (68 kDa) containing the entire NS3 serine protease domain. The mRNA transcribed from pCite(NS5AB) guides the synthesis of a precursor of 115 kDa which contains NS5A and NS5B and is thus a substrate for the proteolytic activity associated with NS3.
# This peptide was added to an in vitro translation mixture simultaneously programmed with the mRNAs transcribed from the plasmids pCite(NS3) and pCite(NS5AB).
# HCV NS3 serine protease [2] = biological target: T1, HCV NS3 serine protease; assay: Activation of HCV NS3 serine protease in cultivated HeLa cells (vTF7-3 infection, plasmid cotransfection, immunoprecipitation); assay type: cell-based; conditions: NS4A expressed transiently in HeLa cells together with the NS3 serine protease domain; no cleavage without NS4A
# [3] = biological target: T2, recombinant NS3 serine protease (Hepatitis C virus (isolate BK), UniProt P26663); assay: Assay of recombinant HCV NS3 serine protease purified from E. coli on a peptide substrate (NS4A/4B junction), HPLC; assay type: biochemical
# T2 construct: NS4A/4B peptide substrate
# T2 sequence (P26663 1027-1206): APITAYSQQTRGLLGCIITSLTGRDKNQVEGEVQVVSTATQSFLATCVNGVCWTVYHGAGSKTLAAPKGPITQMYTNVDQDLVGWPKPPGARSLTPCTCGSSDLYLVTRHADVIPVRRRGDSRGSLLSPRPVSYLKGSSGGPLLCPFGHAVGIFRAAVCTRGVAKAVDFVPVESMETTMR
# Procedure: The recombinant NS3 serine protease produced according to the above procedure in E. coli could be assayed for activity by cleaving a substrate that provides detectable cleavage products. The signal is preferably detectable by colorimetric or fluorometric means. Methods such as HPLC and the like are also suitable.
# For example, we used, as a substrate, synthetic peptides corresponding to the NS4A/4B junction of the HCV polyprotein.
# The activity assay is performed by incubating 5-1000 μM substrate and 0.05-1 μM protease in buffer containing 25 mM Tris/HCl pH 7.5, 3 mM dithiothreitol, 0.5% (w/v) CHAPS and 10% (v/v) glycerol for 1-3 hours at 22° C. The reaction is stopped by addition of trifluoracetic acid to yield a final concentration of 0.1% (w/v).
# The reaction products are then separated by HPLC on a C18 reverse phase column and quantitated according to their absorbance of the far UV light.
Substance,"serine protease activity of NS3 on a substrate containing NS5A and NS5B (HCV NS3 serine protease [1]; in vitro translation, protein sequence containing NS4A present in addition to the NS3 protease domain, no activity with NS3 domain alone)",activation of the proteolytic activity associated with NS3 (cleavage of the precursor encoded by pCite(NS4B5A)) (HCV NS3 serine protease [2]),proteolytic activity of the NS3 serine protease domain on NS5AB substrate (HCV NS3 serine protease [1]; peptide added to in vitro translation mixture programmed with mRNAs from pCite(NS3) and pCite(NS5AB)),"stimulation of the proteolytic activity of the recombinant NS3 serine protease ([3]; increasing amounts of peptide, NS4A/4B junction peptide substrate, pH 7.5, 22° C., HPLC)",peptide to protease ratio at which maximal activity is reached ([3]; recombinant NS3 serine protease and synthetic peptide)
NS4A: HCV non-structural hydrophobic protein of 6 kDa acting as cofactor of the NS3 serine protease,serine protease activity of NS3 becomes evident,can thus activate the proteolytic activity associated with NS3,,,
SEQ ID NO:3: Synthetic peptide derived from the C-terminal portion of SEQ ID NO:2 (NS4A); carboxy terminal cysteine replaced with alpha-aminobutyric acid (Abu),,,proteolytic cleavage of the substrate in the two products containing the proteins NS5A and NS5B,up to 20 fold,equimolar amounts
